In article PMC3853347:

How the values were obtained:
[1] = target: Flag-TDRD3 CTD-deletion mutant; assay: co-IP
[2] = target: Flag-TDRD3 Tudor-deletion mutant (UniProt Q9H7E2); assay: co-IP
Chain of Flag-TDRD3 Tudor-deletion mutant (Q9H7E2 whole entry, stated change not applied): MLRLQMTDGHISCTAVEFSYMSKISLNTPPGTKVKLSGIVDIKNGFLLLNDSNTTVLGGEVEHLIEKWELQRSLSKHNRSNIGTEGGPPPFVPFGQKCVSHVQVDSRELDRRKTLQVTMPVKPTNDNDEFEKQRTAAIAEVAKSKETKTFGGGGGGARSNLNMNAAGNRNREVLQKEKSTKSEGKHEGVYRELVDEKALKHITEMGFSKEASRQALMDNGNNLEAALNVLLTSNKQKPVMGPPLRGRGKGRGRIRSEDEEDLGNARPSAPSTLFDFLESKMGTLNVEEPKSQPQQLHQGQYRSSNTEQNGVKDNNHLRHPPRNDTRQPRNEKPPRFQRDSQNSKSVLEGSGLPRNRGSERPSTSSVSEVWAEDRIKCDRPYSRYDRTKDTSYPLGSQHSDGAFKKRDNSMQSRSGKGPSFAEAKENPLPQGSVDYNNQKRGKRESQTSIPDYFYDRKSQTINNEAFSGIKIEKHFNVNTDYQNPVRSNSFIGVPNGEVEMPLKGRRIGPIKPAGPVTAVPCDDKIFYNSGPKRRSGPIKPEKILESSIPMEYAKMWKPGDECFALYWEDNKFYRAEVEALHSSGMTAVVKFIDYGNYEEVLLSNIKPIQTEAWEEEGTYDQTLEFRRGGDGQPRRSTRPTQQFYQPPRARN

Chain of Flag-TDRD3 CTD-deletion mutant (Q9H7E2 whole entry, stated change not applied): as above
Chain of FXR1, endogenous human (P51114 whole entry): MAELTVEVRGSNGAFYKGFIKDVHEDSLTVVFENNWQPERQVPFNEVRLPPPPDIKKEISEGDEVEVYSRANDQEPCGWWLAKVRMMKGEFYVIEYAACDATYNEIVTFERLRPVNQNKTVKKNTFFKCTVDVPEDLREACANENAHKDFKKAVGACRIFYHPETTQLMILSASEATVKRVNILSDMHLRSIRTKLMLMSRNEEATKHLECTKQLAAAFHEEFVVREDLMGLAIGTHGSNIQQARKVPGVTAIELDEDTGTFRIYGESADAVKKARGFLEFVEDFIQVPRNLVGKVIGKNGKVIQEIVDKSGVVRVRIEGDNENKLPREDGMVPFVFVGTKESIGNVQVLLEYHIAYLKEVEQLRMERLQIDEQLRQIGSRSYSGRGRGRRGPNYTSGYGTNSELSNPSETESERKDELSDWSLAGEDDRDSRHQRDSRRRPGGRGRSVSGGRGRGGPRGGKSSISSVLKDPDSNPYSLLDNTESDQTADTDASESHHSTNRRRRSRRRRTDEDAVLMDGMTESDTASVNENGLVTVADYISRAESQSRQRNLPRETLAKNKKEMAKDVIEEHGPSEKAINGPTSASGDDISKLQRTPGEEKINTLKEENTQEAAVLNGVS
Chain of FXR2, endogenous human (P51116 whole entry): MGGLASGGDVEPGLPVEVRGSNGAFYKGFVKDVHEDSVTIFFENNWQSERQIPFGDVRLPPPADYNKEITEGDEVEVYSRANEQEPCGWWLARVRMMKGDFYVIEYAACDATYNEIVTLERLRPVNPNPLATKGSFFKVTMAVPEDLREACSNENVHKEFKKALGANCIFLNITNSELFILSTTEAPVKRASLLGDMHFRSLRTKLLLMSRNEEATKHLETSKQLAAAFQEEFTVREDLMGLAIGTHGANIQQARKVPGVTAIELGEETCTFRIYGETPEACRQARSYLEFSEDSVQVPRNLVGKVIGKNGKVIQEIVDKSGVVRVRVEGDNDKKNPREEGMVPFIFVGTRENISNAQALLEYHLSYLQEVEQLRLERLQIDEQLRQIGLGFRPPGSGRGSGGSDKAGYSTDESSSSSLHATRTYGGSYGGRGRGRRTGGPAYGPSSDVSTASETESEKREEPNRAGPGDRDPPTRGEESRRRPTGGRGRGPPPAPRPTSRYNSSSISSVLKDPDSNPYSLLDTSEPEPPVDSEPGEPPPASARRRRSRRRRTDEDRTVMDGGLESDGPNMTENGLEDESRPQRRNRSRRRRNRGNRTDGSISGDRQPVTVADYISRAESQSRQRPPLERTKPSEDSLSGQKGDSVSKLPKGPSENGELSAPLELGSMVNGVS

Substance	reduction of the co-immunoprecipitated amount against wild-type TDRD3 [1]	reduction of the co-immunoprecipitated amount against wild-type TDRD3 [2]
FXR2, endogenous human (from UniProt P51116 1-673) (natural protein)	80%	30%
FMRP, endogenous human (from UniProt Q06787 1-632) (natural protein)	80%	30%
FXR1, endogenous human (from UniProt P51114 1-621) (natural protein)	80%	30%
